Results: article doi:10.1101/2024.06.17.598829 (bioRxiv, 2024)
Values joined by “and” are separate entries in the source; they are usually repeats but may differ in a detail not shown here. Equal entries are not always repeated.

Target: the molecule itself
Test: SEC

B1: MBP:NPH3-C104 (domain or fragment, Arabidopsis, UniProt Q9FMF5 643-746, looked up)
chain: PQSFQEGWAAAKKDINTLKFELETVKTKYVELQNEMEVMQRQFEKTGKVKNTPSSSAWTSGWKKLSKLTKMSGQESHDISSGGEQAGVDHPPPRKPRRWRNSIS
- stoichiometry N: 3 and 6
